# IntAct's records for PubMed 24240280
# How the values were obtained:
# [1] = biological target: T1, sv2c_human SV2C (UniProt Q496J9)
# T1 sequence: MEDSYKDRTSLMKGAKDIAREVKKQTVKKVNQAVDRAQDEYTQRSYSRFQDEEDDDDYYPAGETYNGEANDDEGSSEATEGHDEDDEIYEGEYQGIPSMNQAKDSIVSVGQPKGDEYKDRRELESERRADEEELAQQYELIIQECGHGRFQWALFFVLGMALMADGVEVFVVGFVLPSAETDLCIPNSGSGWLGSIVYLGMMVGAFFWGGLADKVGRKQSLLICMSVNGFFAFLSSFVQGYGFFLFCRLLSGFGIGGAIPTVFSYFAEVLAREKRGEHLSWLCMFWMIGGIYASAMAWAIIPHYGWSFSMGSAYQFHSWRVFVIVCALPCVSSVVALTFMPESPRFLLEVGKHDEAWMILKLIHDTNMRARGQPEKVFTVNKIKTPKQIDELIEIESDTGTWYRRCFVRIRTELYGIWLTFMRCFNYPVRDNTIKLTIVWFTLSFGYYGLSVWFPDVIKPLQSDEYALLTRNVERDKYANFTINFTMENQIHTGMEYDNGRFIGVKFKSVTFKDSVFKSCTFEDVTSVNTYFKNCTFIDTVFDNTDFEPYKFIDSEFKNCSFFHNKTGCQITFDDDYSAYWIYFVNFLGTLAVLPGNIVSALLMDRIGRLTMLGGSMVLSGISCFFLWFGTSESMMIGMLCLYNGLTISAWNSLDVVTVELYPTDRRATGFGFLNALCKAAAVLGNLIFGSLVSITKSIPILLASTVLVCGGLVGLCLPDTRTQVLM
# [2] = biological target: T1, sv2c_human SV2C; remark: listed apart in the source
Substance,effect of a mutation on the interaction [1],effect of a mutation on the interaction [2]
Botulinum neurotoxin type A (Clostridium botulinum) (from UniProt P0DPI0) R1294A,decreasing interaction strength,–
Botulinum neurotoxin type A (Clostridium botulinum) (from UniProt P0DPI0) T1145A;T1146A,disrupting interaction strength,decreasing interaction strength
Botulinum neurotoxin type A (Clostridium botulinum) (from UniProt P0DPI0) R1156E,decreasing interaction strength,–
